Laboratory results from paper PMC3088361 (Biochemistry, 2011).

Target: HIV-1 YU-2 gp120 wild type (HIV-1 (isolate YU-2), UniProt P35961 32-498)
Test: SPR

## CNLHWCQLRCKSLGLLGKCAGSFCACV (designed binder, C-terminal amide (-NH2); oxidized peptide) [[F5W]CD4F23]
  binding result: binds
